Source: patent US20140072986, “AMYLOID PROTEIN OLIGOMER-BINDING APTAMER” (NATIONAL UNIVERSITY CORPORATION TOKYO UNIVERSITY OF …, published 2014)

How the values were obtained:
[1] = target: T1, amyloid beta 1-40 oligomer (UniProt P05067 P05067:672-711); test: aptamer blotting, 500 nM; conditions: tags: Peptide Institute peptide; oligomerised from HFIP/water; chain copies: oligomer (stated); label: 5'-FITC; G4
Protocol: (§1) α-synuclein monomer, oligomer, and fibril (1 μg) was immobilized on a nitrocellulose membrane and dried. Then, the membrane was incubated with 4% skim milk prepared using TBS-T (25 mM Tris-HCl, pH 7.4, 0.15 M NaCl, 0.005 M KCl, 0.05% Tween-20) at room temperature for 1 hour for blocking. After that, the membrane was washed with a sufficient amount of TBS-T (2 min×twice and 10 min×one time). The obtained plural oligonucleotides modified with FITC at the 5′ end (f.c. 100 nM) were folded, and the DNA and the membrane were incubated at room temperature for 1 hour. Next, the membrane was washed with a sufficient amount of TBS-T (2 min×twice, 10 min×one time, and 5 min×twice). After that, an HRP-modified anti-FITC antibody diluted to 1000 times with TBS-T and the membrane were incubated at room temperature for 1 hour and the membrane was washed with a sufficient amount of TBS-T (2 min×twice, 10 min×one time, and 5 min×twice). ECL Plus Western blotting detection reagents (GE Healthcare Ltd.) were added to the membrane, and HRP chemiluminescence was detected by TYPHOON 8600 to observe the binding of the DNA to the protein.
Spot intensities of portions with the immobilized α-Syn oligomer were analyzed to create a calibration curve, whereby an oligomer concentration included in the Aβ₁₋₄₀ oligomer sample was roughly estimated. After that, the Aβ₁₋₄₀ oligomer was immobilized on a nitrocellulose membrane in such a manner that the A11 has the same level of spot intensity, and aptamer blotting was performed using 500 nM of each aptamer. As a control, the A11 was used to perform the same experiment.

C-reactive protein (CRP) = target: T2, C-reactive protein (CRP) (UniProt P02741 P02741:19-224); test: aptamer blotting, 5 pmol protein; conditions: tags: Polyscience Corp; chain copies: 5; label: 5'-FITC; G4
T2 sequence: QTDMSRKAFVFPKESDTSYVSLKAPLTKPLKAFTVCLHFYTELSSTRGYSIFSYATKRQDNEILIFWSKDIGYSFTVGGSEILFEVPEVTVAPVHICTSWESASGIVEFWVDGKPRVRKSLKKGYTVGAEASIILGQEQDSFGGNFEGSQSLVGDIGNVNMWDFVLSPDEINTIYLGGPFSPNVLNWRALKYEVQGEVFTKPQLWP
Protocol: as §1
(§2) On the same nitrocellulose membrane, 5 pmol of each of glucose dehydrogenase (PQQGDH) dependent on the coenzyme PQQ, a C-reactive protein (CRP) (Polyscience Corp.), luciferase, and an IgG antibody (Sigma Aldrich Company), and 0.5 μg of α-synuclein oligomer were immobilized. Using the membrane, specificity evaluation was performed by an aptamer blotting method.

[2] = target: PQQ-dependent glucose dehydrogenase (PQQGDH) (UniProt P13650 P13650:25-478); test: aptamer blotting, 5 pmol protein; conditions: label: 5'-FITC; G4
Protocol: as §1, §2

[3] = target: T1, amyloid beta 1-40 oligomer; test: ELONA; signal from 1 nM versus 10 nM for T-SO530; also strong spot in blotting FIG. 6; conditions: tags: Peptide Institute peptide; oligomerised from HFIP/water; chain copies: oligomer (stated); label: 5'-FITC
Protocol: (§3) 100 μL of 100 μM of an Aβ oligomer solution or PBS buffer was added to each well of MaxiSorp (registered trademark) plate (Nunc Co., Ltd) and incubated at 37° C. for 1.5 hours to immobilize the Aβ oligomer on the wells. Blocking of each well was performed with a 2% (w/v) BSA solution (TBS-T: 25 mM Tris-HCl, pH 7.4, 0.15M NaCl, 0.005M KCl, 0.05% Tween-20) to produce an Aβ oligomer-immobilized plate.
(§4) To each well of the Aβ oligomer-immobilized plate was added the each FITC-labeled aptamer prepared in a concentration of 1 nM, 2.5 nM, or 10 nM, and incubation at room temperature for 60 minutes was carried out. After washing the wells, an HRP-modified anti-FITC antibody (Cosmo BiO Co., Ltd) was added to the wells and incubation was performed at room temperature. After washing the wells, an HRP-luminescent substrate was added to detect the binding of each aptamer to the oligomer by chemiluminescence. FIG. 5 illustrates the results.

[4] = target: T1, amyloid beta 1-40 oligomer; test: ELONA; oligomer immobilised on plate, room temp; conditions: tags: Peptide Institute peptide, oligomerised from HFIP/water, chain copies: oligomer (stated), label: 5'-FITC
Protocol: as §3, §4
Further, using the 10T dimer and the original aptamer T-SO530 in a concentration of 1 nM, 2.5 nM, 10 nM, 20 nM, or 60 nM, an experiment for binding the aptamers to the Aβ oligomer was performed in the same manner as above. Based on the obtained binding signals, curve fitting was performed using GraphPad Prism (MDF Co., Ltd.) to calculate a binding dissociation constant (Kd).

alpha-synuclein oligomer [5] = target: T3, alpha-synuclein oligomer (UniProt P37840 P37840:1-140); test: aptamer blotting; did not retain binding of T-SO504
alpha-synuclein oligomer [6] = target: T3, alpha-synuclein oligomer; test: aptamer blotting; binding improved over T-SO504
alpha-synuclein oligomer [7] = target: T3, alpha-synuclein oligomer; test: aptamer blotting

T1 sequence (P05067 672-711, one chain of several): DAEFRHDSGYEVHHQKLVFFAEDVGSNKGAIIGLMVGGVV
Chain of PQQ-dependent glucose dehydrogenase (PQQGDH) (P13650 25-478, one chain of several): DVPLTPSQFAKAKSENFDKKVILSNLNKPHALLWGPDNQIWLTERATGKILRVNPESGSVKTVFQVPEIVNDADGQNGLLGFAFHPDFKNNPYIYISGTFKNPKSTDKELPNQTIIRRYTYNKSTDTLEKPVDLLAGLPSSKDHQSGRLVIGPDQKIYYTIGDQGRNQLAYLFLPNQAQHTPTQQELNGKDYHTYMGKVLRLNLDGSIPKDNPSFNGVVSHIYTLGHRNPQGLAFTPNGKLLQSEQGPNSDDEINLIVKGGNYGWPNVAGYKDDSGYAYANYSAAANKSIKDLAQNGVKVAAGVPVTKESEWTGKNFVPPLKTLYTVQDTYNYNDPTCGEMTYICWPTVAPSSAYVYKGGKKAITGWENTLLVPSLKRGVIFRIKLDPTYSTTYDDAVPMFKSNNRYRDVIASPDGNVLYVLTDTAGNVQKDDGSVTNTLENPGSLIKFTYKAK

CGAGGGGCGTCTGGGAGTGGTCGG (structured_DNA) [T-SO554]: binds [1].

GGTGGCTGGAGGGGGCGCGAACG (structured_DNA) [T-SO517]: no binding (C-reactive protein (CRP)); no binding [2]; binds [1].

B1: 5T dimer (structured_DNA)
DNA: TTTTTGGTGCGGCGGGACTAGTGGGTGTGTTTTTGGTGCGGCGGGACTAGTGGGTGTG
B1: binds [3].

B2: 10T dimer (structured_DNA)
DNA: TTTTTGGTGCGGCGGGACTAGTGGGTGTGTTTTTTTTTTGGTGCGGCGGGACTAGTGGGTGTG
B2 was tested, and the Kd [4] was 1.44 nM.

GCCTGTGGTGTTGGGGCGGGTGCG (structured_DNA) [T-SO508]: binds [1].

CAGGGGTGGGCAAAGGGCGGTGGTG (structured_DNA) [T-SO504]: binds [1].

AAAAAGGGCAAAGGGAA (ssDNA) [504M2]: no binding (alpha-synuclein oligomer [5]).

B3: 504W (structured_DNA)
DNA: AAAAACAGGGGTGGGCAAAGGGCGGTGGTGTTTTTCAGGGGTGGGCAAAGGGCGGTGGTG
B3: binds (alpha-synuclein oligomer [6]).

GGTGCGGCGGGACTAGTGGGTGTG (structured_DNA) [T-SO530]: binds [1].

AAAAAGGGTGGGCAAAGGGAA (ssDNA) [504M1]: no binding (alpha-synuclein oligomer [5]).

GCGGTAGGGTGTGAGCGGAAGGGG (structured_DNA) [T-SO602]: binds [1].

TTTTTCAGGGGTGGGCAAAGGGCGGTGGTG (structured_DNA) [tT-SO504]: binds (alpha-synuclein oligomer [7]).

GCGTGTGGGGCTTGGGCAGCTGGG (structured_DNA) [T-SO552]: binds [1].

GGGTCGGCTGTCCGTGGGTGGGGA (structured_DNA) [T-SO606]: no binding (C-reactive protein (CRP)); no binding [2]; binds [1].

With TTTTTGGTGCGGCGGGACTAGTGGGTGTG (structured_DNA) [tT-SO530] the Kd ([4]; G4) was 9.03 nM.
